Assay results taken from patent publication EP4019090A1.
Numbering of substitutions follows the chain as printed. Values belong to the binder of their own block, whether it stands above or below them.

Columns and labels:
[1] = biological target: Human IL-4R-Fc (human) (UniProt P24394); test: SPR
[2] = biological target: Biotinylated IL-4R (human) (UniProt P24394); test: competitive ELISA; IL-4 coated, biotinylated IL-4R preincubated with scFv, streptavidin-HRP
[3] = biological target: Biotinylated IL-4R (human) (UniProt P24394); test: competitive ELISA; IL-4 coated, biotinylated IL-4R preincubated with scFv; reference dupilumab
[4] = biological target: Human IL-4R-Fc (human) (UniProt P24394); test: SPR (Biacore T200); human IL-4R-Fc captured via anti-human IgG-Fc, scFv as analyte; 1:1 model

Chain of Biotinylated IL-4R (human) (P24394 26-232 limits assumed): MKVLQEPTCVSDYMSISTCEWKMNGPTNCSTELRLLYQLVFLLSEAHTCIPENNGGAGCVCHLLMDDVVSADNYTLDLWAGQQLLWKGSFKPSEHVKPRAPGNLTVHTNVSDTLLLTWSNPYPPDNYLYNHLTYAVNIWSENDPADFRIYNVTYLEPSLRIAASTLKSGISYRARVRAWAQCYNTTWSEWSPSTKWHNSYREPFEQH
Chain of Human IL-4R-Fc (human) (P24394 26-232 limits assumed): as above

Kd [1]: < 0.5 nM | IC50 [2]: 0.54 ng/mL | rel. IC50 (IC50, dupilumab/IC50 test sample) [3]: 3.46
B1: PRO1517 (scFv, from another filing)
scFv: DIQMTQSPSSLSASVGDRVTITCQASEDIESYLAWYQQKPGKAPKLLIYRASTLAYGVPSRFSGSGSGTDFTLTISSLQPEDFATYYCLGSSYSTGSNIFGTGTKVTVLGGGGGSGGGGSGGGGSGGGGSEVQLVESGGGLVQPGGSLRLSCAASGFSSSSAHYMCWVRQAPGKGLEWIGCIYAGSRGSTYYASWAKGRFTISRDNSKNTVYLQMNSLRAEDTAVYYCARAAFVNRGVSWIWPYYFSLWGQGTLVTVSS

Kd [1]: < 0.5 nM | IC50 [2]: 1.92 ng/mL | Kd [4]: 0.0199 nM | koff [4]: 5.42e-05 s⁻¹ | kon [4]: 2.72e+06 M⁻¹ s⁻¹ | rel. IC50 (IC50, dupilumab/IC50 test sample) [3]: 0.98
B2: PRO1535 (scFv, from another filing)
scFv: B1 scFv with A43P, V132S, G180A, R204K, Y227F
